From article PMC12528321

T1: NtZFP8 (Nicotiana tabacum, UniProt A0A1S4DEM8 1-256)
T1 sequence: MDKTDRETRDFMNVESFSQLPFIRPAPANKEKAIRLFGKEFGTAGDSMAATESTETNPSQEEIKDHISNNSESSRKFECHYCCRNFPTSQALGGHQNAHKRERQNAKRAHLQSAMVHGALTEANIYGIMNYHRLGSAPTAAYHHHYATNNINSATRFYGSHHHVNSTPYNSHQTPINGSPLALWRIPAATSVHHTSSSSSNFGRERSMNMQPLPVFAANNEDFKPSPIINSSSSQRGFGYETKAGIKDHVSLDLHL

T2: AmMIXTA (Antirrhinum majus, UniProt Q38739 1-321)
T2 sequence: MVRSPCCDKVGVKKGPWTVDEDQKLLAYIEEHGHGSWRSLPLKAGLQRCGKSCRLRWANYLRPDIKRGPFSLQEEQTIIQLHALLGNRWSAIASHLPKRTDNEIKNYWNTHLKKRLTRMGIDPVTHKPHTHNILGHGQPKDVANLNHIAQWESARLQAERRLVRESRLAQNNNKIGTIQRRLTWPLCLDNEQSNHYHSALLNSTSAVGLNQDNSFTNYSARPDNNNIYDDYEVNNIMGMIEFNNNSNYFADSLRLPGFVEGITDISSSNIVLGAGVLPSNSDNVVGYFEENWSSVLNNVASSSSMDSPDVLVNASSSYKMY

B1: ZFP8_EMSA_Probe (dsDNA)
DNA 1: AGACGGATCCATTGCAATAAGAAGAAGAAGATCCTGTAGGAATTCGGA
DNA 2: TCCGAATTCCTACAGGATCTTCTTCTTCTTATTGCAATGGATCCGTCT
B2: MIXTA_EMSA_Probe (dsDNA)
DNA 1: AGACGGATCCATTGCAATAGGTGGTGGTGGATCCTGTAGGAATTCGGA
DNA 2: TCCGAATTCCTACAGGATCCACCACCACCTATTGCAATGGATCCGTCT

Legend:
NtZFP8 = molecular target: T1, NtZFP8; assay: EMSA
AmMIXTA = molecular target: T2, AmMIXTA; assay: EMSA

| Binder | binding result (NtZFP8) | binding result (AmMIXTA) |
| --- | --- | --- |
| B1 | binds |  |
| B2 |  | binds |
